From publication doi:10.1101/2022.07.21.500812 (bioRxiv, 2022) come the findings set out here.

The target of this experiment is human GPC3 residues 32-483 (hGPC3^core) (human, UniProt P51654 32-483, N-linked glycans at N124 and N241). Put plainly: SPR.
human GPC3 residues 32-483 (hGPC3^core), sequence (P51654 32-483): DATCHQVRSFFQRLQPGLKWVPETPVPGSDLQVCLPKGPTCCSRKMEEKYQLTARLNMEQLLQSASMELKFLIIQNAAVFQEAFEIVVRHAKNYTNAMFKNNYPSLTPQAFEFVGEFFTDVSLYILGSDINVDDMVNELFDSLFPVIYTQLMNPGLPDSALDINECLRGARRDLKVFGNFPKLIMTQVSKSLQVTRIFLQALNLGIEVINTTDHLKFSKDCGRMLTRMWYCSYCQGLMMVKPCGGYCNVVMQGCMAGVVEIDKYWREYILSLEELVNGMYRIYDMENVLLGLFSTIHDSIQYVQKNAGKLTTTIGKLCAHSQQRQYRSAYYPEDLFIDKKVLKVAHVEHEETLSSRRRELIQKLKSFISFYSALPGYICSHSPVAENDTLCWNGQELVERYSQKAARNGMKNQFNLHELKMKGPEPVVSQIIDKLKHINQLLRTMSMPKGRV

B1: mouse Unc5A ectodomain (mUnc5A^ecto, residues 1-359) (domain or fragment)
chain: not shown
Turning to B1, the binding result is given as “binds”.
